Test results published in US20240425607A1, “IL-18BP ANTAGONIST ANTIBODIES AND THEIR USE IN MONOTHERAPY AND COMBINATION THERAPY IN THE TREATMENT OF CANCER” (Compugen Ltd., priority 2023, published 2024).
Values belong to the substance of their own block, whether it stands above or below them.

What was measured:
[1] = biological target: human IL-18BP (recombinant, construct not stated) (human) (UniProt O95998); assay: Biacore
[2] = biological target: human IL-18BP (recombinant, construct not stated) (human) (UniProt O95998); assay: KinExA
[3] = biological target: cynomolgus monkey IL-18BP (construct not stated) (cynomolgus monkey); assay: KinExA, solution equilibrium

Sequence of human IL-18BP (recombinant, construct not stated) (human) (O95998 31-194 limits assumed): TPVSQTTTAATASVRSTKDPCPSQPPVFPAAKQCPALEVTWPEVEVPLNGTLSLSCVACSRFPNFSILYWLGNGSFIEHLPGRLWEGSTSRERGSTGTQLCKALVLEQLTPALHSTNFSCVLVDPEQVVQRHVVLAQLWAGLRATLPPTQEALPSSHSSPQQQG

- Kd [1]: 0.273 nM
Substance: anti-human IL18BP antibody clone 136007 (cat. MAB1191, R&D systems)

- Kd [2]: 0.0638 nM
Substance: anti-human IL18BP antibody clone W19089C (cat. 947703, Biolegend)

- Kd [3]: 0.000345 nM
Substance: cyno IL-18 (from UniProt A0A2K5TJ84 37-193) (ligand)
